In patent publication EP4011904A1 (Bayer Aktiengesellschaft, dated 2022):
Positions of bridges follow the written chain, without caps; N, C: chain ends.

Assays:
Test in all cases: cell-based or functional assay
[1] = molecular target: T1, recombinant human MASP1 (amino acids 297-699, C-terminal His Tag) (human, UniProt P48740 297-699)
T1 sequence: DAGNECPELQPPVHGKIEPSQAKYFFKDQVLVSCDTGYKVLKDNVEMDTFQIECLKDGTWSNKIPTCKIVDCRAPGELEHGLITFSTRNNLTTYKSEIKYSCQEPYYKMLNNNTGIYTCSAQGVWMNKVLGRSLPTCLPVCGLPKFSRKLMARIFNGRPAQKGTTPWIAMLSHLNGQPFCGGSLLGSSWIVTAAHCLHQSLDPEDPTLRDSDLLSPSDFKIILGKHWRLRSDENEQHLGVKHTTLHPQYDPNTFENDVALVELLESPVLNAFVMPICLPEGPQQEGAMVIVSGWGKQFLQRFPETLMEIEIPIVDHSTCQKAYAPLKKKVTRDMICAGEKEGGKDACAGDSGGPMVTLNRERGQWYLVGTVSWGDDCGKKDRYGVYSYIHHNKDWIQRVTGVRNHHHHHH

[2] = molecular target: recombinant human MASP2 (amino acids 297-686, C-terminal His Tag) (human, UniProt O00187 297-686)
recombinant human MASP2 (amino acids 297-686, C-terminal His Tag), sequence (O00187 other isoform, or with tags, fused parts or gaps limits assumed, form in doubt): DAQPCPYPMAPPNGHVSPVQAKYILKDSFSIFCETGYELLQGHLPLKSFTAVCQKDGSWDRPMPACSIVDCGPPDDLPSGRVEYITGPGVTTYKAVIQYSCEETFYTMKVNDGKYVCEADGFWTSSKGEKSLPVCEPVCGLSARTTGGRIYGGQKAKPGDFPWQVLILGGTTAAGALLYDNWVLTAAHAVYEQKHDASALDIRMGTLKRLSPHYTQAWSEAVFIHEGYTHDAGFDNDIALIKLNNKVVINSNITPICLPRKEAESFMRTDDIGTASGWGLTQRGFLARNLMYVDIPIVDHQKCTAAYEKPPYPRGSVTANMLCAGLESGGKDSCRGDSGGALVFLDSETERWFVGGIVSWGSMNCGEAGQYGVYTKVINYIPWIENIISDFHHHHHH

[3] = molecular target: recombinant rat MASP2 (amino acids 296-685, C-terminal His Tag) (rat, UniProt Q9JJS8 296-685)
recombinant rat MASP2 (amino acids 296-685, C-terminal His Tag), sequence (Q9JJS8 other isoform, or with tags, fused parts or gaps limits assumed, form in doubt): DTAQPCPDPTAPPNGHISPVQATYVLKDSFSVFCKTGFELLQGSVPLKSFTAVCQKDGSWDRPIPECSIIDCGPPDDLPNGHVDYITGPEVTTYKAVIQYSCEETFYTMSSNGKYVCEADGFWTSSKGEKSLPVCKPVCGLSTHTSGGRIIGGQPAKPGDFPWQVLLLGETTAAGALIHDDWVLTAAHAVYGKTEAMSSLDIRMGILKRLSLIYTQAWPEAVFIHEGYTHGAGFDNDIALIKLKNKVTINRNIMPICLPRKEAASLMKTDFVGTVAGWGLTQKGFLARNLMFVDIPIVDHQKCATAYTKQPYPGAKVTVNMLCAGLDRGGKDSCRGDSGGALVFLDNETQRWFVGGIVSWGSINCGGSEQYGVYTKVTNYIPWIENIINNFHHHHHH

[4] = molecular target: T2, recombinant rat MASP1 (amino acids 302-704, C-terminal His Tag) (rat, UniProt Q8CHN8 302-704)
T2 sequence: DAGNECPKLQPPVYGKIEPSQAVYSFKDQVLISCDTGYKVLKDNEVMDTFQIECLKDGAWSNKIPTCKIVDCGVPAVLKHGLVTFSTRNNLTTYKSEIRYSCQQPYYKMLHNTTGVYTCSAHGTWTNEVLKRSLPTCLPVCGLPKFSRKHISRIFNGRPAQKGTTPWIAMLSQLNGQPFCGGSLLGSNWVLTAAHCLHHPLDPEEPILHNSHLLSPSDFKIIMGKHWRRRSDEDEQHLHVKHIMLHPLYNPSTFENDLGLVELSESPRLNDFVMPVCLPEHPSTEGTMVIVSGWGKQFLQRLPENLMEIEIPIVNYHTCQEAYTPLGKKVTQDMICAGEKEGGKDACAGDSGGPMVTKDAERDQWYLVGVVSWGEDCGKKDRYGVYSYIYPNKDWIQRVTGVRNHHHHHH

B1: Bicyclic SFTI-1: G**RC+TKSIPPIC+FPD** (peptide)
peptide: cyclo(GRCTKSIPPICFPD)
modifications: disulfide 3-11; also: TFA salt
human MASP1 IC50 [1]: > 3000 nM | human MASP2 IC50 [2]: > 3000 nM | rat MASP2 IC50 [3]: 1000 nM | rat MASP1 IC50 [4]: 1000 nM
